Results taken from US20210107983A1 (Boehringer Ingelheim, published 2021).

Columns and labels:
[1] = biological target: T1, human B7H6 on HCT-15 cells (human, UniProt Q68D85 25-454); experiment: cell-based or functional assay
T1 sequence (looked up): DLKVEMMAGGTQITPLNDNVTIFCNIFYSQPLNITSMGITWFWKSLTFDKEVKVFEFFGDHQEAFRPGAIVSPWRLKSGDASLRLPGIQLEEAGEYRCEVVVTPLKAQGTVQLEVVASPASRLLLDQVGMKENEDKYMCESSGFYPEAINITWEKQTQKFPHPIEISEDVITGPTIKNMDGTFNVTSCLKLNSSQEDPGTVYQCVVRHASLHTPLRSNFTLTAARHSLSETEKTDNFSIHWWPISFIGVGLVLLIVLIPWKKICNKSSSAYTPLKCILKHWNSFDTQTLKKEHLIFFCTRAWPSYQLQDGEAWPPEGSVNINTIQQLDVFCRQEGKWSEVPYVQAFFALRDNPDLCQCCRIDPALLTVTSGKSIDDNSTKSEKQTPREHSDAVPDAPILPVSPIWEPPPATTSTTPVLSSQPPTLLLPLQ

[2] = biological target: T1, human B7H6 on HCT-15 cells; experiment: flow cytometry on HCT-15 cells, PE anti-human secondary antibody
Description: Binding of B7H6/CD3 binding proteins to HCT-15, a human (colo-rectal cancer) CRC cell line was tested by flow cytometry. In a previous experiment, it has been confirmed that HCT-15 cells expresses B7-H6 on the RNA levels as well as the protein level with approximately 8,000 B7-H6 receptors on the cell surface (data not shown). B7H6/CD3 binding proteins were produced, as described in Example 2. HCT-15 cells were stained with increasing concentrations of two-step purified B7H6/CD3 binding proteins in FACS buffer (PBS/0.5% BSA/0.05% sodium azide). Bound molecules were detected with PE-conjugated anti-human secondary antibody (Sigma-Aldrich, #P8047).

[3] = biological target: T2, Fc-His-tagged human B7H6 ECD (human); experiment: ELISA, plate coated with Fc-His-tagged human B7H6 ECD, anti-human IgG F(ab')2-peroxidase, TMB
T2 construct: also called huB7H6-ECD-Fc-His; recombinant human B7H6 ECD
Description: (§1) To assess binding of B7H6/CD3 binding proteins to recombinant human Fc-His-tagged B7H6 ECD and human Fc-His-tagged Ala-mutated B7H6 extracellular proteins as described in Example 3, MediSorp™ plates (Nunc, 467320) were coated with […] recombinant proteins overnight at 4° C. The next day, plates were blocked with 0.5% bovine serum albumin (BSA) in phosphate buffered saline (PBS) for 1 hour at room temperature (RT). Subsequently plates were washed with […] containing 0.05% TWEEN®20 viscous liquid and B7H6/CD3 binding proteins were incubated at concentrations ranging from 0.00001 to 10 μg/ml. After an additional washing step, bound B7H6/CD3 binding proteins were detected by a peroxidase conjugated goat anti-human IgG F(ab′)₂-specific secondary antibody (Jackson Immunoresearch) and visualized by TMB substrate solution (Bender Med Systems).

[4] = biological target: T3, Fc-His-tagged human Ala-mutated B7H6 ECD (human); experiment: ELISA, plate coated with Fc-His-tagged human Ala-mutated B7H6 ECD, anti-human IgG F(ab')2-peroxidase, TMB
T3 construct: also called huB7H6-Ala-ECD
Description: as §1

| EC50 (read off the curve) [2] [nM] | EC50 (read off the curve) [3] [µg/mL] | EC50 (read off the curve) [4] [µg/mL] | Binder | EC50 [nM], 72 hour cytotoxicity assay, non-stimulated T-cells (Donor #1) as effector cells, HCT-15 cells as target cells [1] [nM] |
| --- | --- | --- | --- | --- |
| ~0.9 | ~0.05 | – | B7H6#10/CD3#1 (bispecific antibody, human IgG1, kappa, lambda, L234A L235A, scFab-Fc heterodimer, one B7H6 chain and one CD3 chain) chain 1: DIQMTQSPSSVSASVGDRVTITCRASQGISSWLAWYQQKPGKAPKLLIYVASSLQRGVPSRFSGSGSGTDFTLTISNLQPEDFATYYCQQANSFPRTFGQGTKVEIKRTVAAPSVFIFPPSDEQLKSGTASVVCLLNNFYPREAKVQWKVDNALQSGNSQESVTEQDSKDSTYSLSSTLTLSKADYEKHKVYACEVTHQGLSSPVTKSFNRGECGGGGSEGKSSGSGSESKSTEGKSSGSGSESKSTGGGGSQVHLQESGPGLVKPSETLSLTCTVSGDSISSYYWSWIRQPAGKGLEWIGHIYTSEKNNYNPSLKSRVIMSVDTSKNQFSLNLSSVTAADTAVYYCARVGNWGSHDAWGQGTLVTVSSASTKGPSVFPLAPSSKSTSGGTAALGCLVKDYFPEPVTVSWNSGALTSGVHTFPAVLQSSGLYSLSSVVTVPSSSLGTQTYICNVNHKPSNTKVDKRVEPKSCDKTHTCPPCPAPEAAGGPSVFLFPPKPKDTLMISRTPEVTCVVVDVSHEDPEVKFNWYVDGVEVHNAKTKPREEQYNSTYRVVSVLTVLHQDWLNGKEYKCKVSNKALPAPIEKTISKAKGQPREPQVYTLPPSREEMTKNQVSLWCLVKGFYPSDIAVEWESNGQPENNYKTTPPVLDSDGSFFLYSKLTVDKSRWQQGNVFSCSVMHEALHNHYTQKSLSLSPG chain 2: EAVVTQEPSLTVSPGGTVTLTCRSSTGAVTTSNYANWVQEKPGQLPRGLIGGTNKRAPWVPARFSGSLLGGKAALTLSGAQPEDEAEYFCALWYSNLWVFGGGTKLTVLGQPKAAPSVTLFPPSSEELQANKATLVCLISDFYPGAVKVAWKADGSPVNTGVETTTPSKQSNNKYAASSYLSLTPEQWKSHRSYSCQVTHEGSTVEKTVAPAECSGGGGSEGKSSGSGSESKSTEGKSSGSGSESKSTGGGGSEVQLVESGGGLVQPGGSLKLSCAASGFTFNTYAMNWVRQAPGKGLEWVARIRSKYNNYATYYADSVKDRFTISRDDSKNTAYLQMNNLKTEDTAVYYCVRHGNFGNSYVSWFAYWGQGTLVTVSAASTKGPSVFPLAPSSKSTSGGTAALGCLVKDYFPEPVTVSWNSGALTSGVHTFPAVLQSSGLYSLSSVVTVPSSSLGTQTYICNVNHKPSNTKVDKRVEPKSCDKTHTCPPCPAPEAAGGPSVFLFPPKPKDTLMISRTPEVTCVVVDVSHEDPEVKFNWYVDGVEVHNAKTKPREEQYNSTYRVVSVLTVLHQDWLNGKEYKCKVSNKALPAPIEKTISKAKGQPREPQVYTLPPSREEMTKNQVSLSCAVKGFYPSDIAVEWESNGQPENNYKTTPPVLDSDGSFFLVSKLTVDKSRWQQGNVFSCSVMHEALHNRFTQKSLSLSPG | 0.53 |
| ~1 | ~0.05 | – | B7H6#7/CD3#1 (bispecific antibody, human IgG1, kappa, lambda, L234A L235A, scFab-Fc heterodimer, one B7H6 chain and one CD3 chain) chain 1: DIQMTQSPSSVSASVGDRVTITCRASQGISSWLAWYQQKPGKAPNLLIYAASSLQSGVPSRFSGSGSGTDFTLTISSLQPEDFATYYCQQANSFPRTFGQGTKVEIKRTVAAPSVFIFPPSDEQLKSGTASVVCLLNNFYPREAKVQWKVDNALQSGNSQESVTEQDSKDSTYSLSSTLTLSKADYEKHKVYACEVTHQGLSSPVTKSFNRGECGGGGSEGKSSGSGSESKSTEGKSSGSGSESKSTGGGGSQVQLQESGPGLVKPSETLSLTYTVSGGSISYNYWSWIRQPPEKGLEWIGHIYYSGSTNYNPSLKSRVTISVDTSKNQFSLKLNSVTAADTAVYYCARVGTWGSFDDWGQGTLVTVSSASTKGPSVFPLAPSSKSTSGGTAALGCLVKDYFPEPVTVSWNSGALTSGVHTFPAVLQSSGLYSLSSVVTVPSSSLGTQTYICNVNHKPSNTKVDKRVEPKSCDKTHTCPPCPAPEAAGGPSVFLFPPKPKDTLMISRTPEVTCVVVDVSHEDPEVKFNWYVDGVEVHNAKTKPREEQYNSTYRVVSVLTVLHQDWLNGKEYKCKVSNKALPAPIEKTISKAKGQPREPQVYTLPPSREEMTKNQVSLWCLVKGFYPSDIAVEWESNGQPENNYKTTPPVLDSDGSFFLYSKLTVDKSRWQQGNVFSCSVMHEALHNHYTQKSLSLSPG chain 2: EAVVTQEPSLTVSPGGTVTLTCRSSTGAVTTSNYANWVQEKPGQLPRGLIGGTNKRAPWVPARFSGSLLGGKAALTLSGAQPEDEAEYFCALWYSNLWVFGGGTKLTVLGQPKAAPSVTLFPPSSEELQANKATLVCLISDFYPGAVKVAWKADGSPVNTGVETTTPSKQSNNKYAASSYLSLTPEQWKSHRSYSCQVTHEGSTVEKTVAPAECSGGGGSEGKSSGSGSESKSTEGKSSGSGSESKSTGGGGSEVQLVESGGGLVQPGGSLKLSCAASGFTFNTYAMNWVRQAPGKGLEWVARIRSKYNNYATYYADSVKDRFTISRDDSKNTAYLQMNNLKTEDTAVYYCVRHGNFGNSYVSWFAYWGQGTLVTVSAASTKGPSVFPLAPSSKSTSGGTAALGCLVKDYFPEPVTVSWNSGALTSGVHTFPAVLQSSGLYSLSSVVTVPSSSLGTQTYICNVNHKPSNTKVDKRVEPKSCDKTHTCPPCPAPEAAGGPSVFLFPPKPKDTLMISRTPEVTCVVVDVSHEDPEVKFNWYVDGVEVHNAKTKPREEQYNSTYRVVSVLTVLHQDWLNGKEYKCKVSNKALPAPIEKTISKAKGQPREPQVYTLPPSREEMTKNQVSLSCAVKGFYPSDIAVEWESNGQPENNYKTTPPVLDSDGSFFLVSKLTVDKSRWQQGNVFSCSVMHEALHNRFTQKSLSLSPG | 0.36 |
| – | ~0.05 | ~0.2 | B7H6#4/CD3#1 (bispecific antibody, human IgG1, kappa, lambda, L234A L235A, scFab-Fc heterodimer, one B7H6 chain and one CD3 chain) chain 1: DIVMTQSQKFMSTSVGDRVSVTCKASQNVGKYVAWYQQKPGQSPKALIYSASNRYDGVPDRFTGSGSGTDFTLTITNVQSEDLTEYFCQQYISYPLTFGAGTKLELKRTVAAPSVFIFPPSDEQLKSGTASVVCLLNNFYPREAKVQWKVDNALQSGNSQESVTEQDSKDSTYSLSSTLTLSKADYEKHKVYACEVTHQGLSSPVTKSFNRGECGGGGSEGKSSGSGSESKSTEGKSSGSGSESKSTGGGGSQVQLQQPGSVLVRPGASVRLSCKASGYTFTNYWMNWMKQRPGQGLEWIGGIYLNGDSTDYNEKFKGKATLTVDTSSSTTYMDLSSLTYEDSAVYYCTTRGDYFGDFWGQGTTLTVSSASTKGPSVFPLAPSSKSTSGGTAALGCLVKDYFPEPVTVSWNSGALTSGVHTFPAVLQSSGLYSLSSVVTVPSSSLGTQTYICNVNHKPSNTKVDKRVEPKSCDKTHTCPPCPAPEAAGGPSVFLFPPKPKDTLMISRTPEVTCVVVDVSHEDPEVKFNWYVDGVEVHNAKTKPREEQYNSTYRVVSVLTVLHQDWLNGKEYKCKVSNKALPAPIEKTISKAKGQPREPQVYTLPPSREEMTKNQVSLWCLVKGFYPSDIAVEWESNGQPENNYKTTPPVLDSDGSFFLYSKLTVDKSRWQQGNVFSCSVMHEALHNHYTQKSLSLSPG chain 2: EAVVTQEPSLTVSPGGTVTLTCRSSTGAVTTSNYANWVQEKPGQLPRGLIGGTNKRAPWVPARFSGSLLGGKAALTLSGAQPEDEAEYFCALWYSNLWVFGGGTKLTVLGQPKAAPSVTLFPPSSEELQANKATLVCLISDFYPGAVKVAWKADGSPVNTGVETTTPSKQSNNKYAASSYLSLTPEQWKSHRSYSCQVTHEGSTVEKTVAPAECSGGGGSEGKSSGSGSESKSTEGKSSGSGSESKSTGGGGSEVQLVESGGGLVQPGGSLKLSCAASGFTFNTYAMNWVRQAPGKGLEWVARIRSKYNNYATYYADSVKDRFTISRDDSKNTAYLQMNNLKTEDTAVYYCVRHGNFGNSYVSWFAYWGQGTLVTVSAASTKGPSVFPLAPSSKSTSGGTAALGCLVKDYFPEPVTVSWNSGALTSGVHTFPAVLQSSGLYSLSSVVTVPSSSLGTQTYICNVNHKPSNTKVDKRVEPKSCDKTHTCPPCPAPEAAGGPSVFLFPPKPKDTLMISRTPEVTCVVVDVSHEDPEVKFNWYVDGVEVHNAKTKPREEQYNSTYRVVSVLTVLHQDWLNGKEYKCKVSNKALPAPIEKTISKAKGQPREPQVYTLPPSREEMTKNQVSLSCAVKGFYPSDIAVEWESNGQPENNYKTTPPVLDSDGSFFLVSKLTVDKSRWQQGNVFSCSVMHEALHNRFTQKSLSLSPG | 0.23 |
